The record followed here is patent publication US20190177411.

Data set [1] concerns the target recombinant Human Pyruvate Dehydrogenase E1-alpha subunit protein (Abcam) (UniProt P08559).
Data set [2] has as its system purified recombinant His-tagged PDK1 (Abcam).

Sequence of recombinant Human Pyruvate Dehydrogenase E1-alpha subunit protein (Abcam) (P08559 30-390): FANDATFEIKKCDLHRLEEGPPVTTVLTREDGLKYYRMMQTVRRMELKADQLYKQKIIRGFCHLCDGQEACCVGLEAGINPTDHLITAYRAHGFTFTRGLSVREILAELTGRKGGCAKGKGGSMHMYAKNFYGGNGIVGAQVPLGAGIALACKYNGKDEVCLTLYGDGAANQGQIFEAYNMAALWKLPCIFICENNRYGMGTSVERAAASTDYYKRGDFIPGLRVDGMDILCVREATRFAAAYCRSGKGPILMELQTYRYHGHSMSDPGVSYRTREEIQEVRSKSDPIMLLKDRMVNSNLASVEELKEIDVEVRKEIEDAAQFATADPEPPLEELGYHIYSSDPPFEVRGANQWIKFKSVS
Sequence of purified recombinant His-tagged PDK1 (Abcam) (chain, as listed by the source): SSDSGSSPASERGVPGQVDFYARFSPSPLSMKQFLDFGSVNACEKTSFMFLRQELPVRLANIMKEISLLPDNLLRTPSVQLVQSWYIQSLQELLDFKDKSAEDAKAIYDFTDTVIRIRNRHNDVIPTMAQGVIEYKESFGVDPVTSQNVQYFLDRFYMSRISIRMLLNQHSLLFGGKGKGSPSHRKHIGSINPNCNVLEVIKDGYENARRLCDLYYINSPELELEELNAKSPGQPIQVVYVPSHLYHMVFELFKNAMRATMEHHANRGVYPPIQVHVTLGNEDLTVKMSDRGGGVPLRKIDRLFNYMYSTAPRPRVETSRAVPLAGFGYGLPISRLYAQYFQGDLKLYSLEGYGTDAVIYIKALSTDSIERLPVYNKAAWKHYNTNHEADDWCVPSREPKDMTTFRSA
Sequence of Flag-tagged T346A PDK1 mutant (chain, as listed by the source T346A): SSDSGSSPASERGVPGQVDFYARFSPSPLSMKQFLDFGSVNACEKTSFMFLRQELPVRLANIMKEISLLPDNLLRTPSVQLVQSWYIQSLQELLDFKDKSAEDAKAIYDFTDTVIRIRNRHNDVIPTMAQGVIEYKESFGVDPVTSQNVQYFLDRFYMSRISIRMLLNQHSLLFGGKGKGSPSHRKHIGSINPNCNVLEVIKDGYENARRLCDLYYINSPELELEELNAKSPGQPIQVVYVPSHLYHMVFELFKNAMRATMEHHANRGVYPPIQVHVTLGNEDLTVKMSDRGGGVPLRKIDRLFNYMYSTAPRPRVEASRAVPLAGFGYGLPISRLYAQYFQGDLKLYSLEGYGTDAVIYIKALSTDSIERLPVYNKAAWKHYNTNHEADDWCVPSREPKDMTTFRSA
Sequence of purified recombinant His-tagged PDK4 (Abcam) (chain, as listed by the source): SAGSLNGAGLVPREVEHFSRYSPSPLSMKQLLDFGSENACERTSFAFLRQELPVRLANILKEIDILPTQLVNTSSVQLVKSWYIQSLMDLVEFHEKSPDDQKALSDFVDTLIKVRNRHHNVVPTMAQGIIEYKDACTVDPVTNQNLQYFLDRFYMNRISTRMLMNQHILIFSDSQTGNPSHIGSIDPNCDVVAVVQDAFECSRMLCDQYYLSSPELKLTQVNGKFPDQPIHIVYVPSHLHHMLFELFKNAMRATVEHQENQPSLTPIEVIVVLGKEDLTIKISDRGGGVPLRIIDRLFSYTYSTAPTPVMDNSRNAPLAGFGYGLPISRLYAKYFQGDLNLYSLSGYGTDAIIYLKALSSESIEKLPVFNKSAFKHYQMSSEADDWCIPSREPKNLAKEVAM

Consider Flag-tagged T346A PDK1 mutant, for which the “PDHE1 phosphorylation by Flag immune complexes mixed with recombinant Akt2 and PDHE1, Western blotting” value in data set [1] is listed as “T346A PDK1 mutant was ineffective”.
The same measure, in the same setting: then “Flag-tagged wild type (WT) PDK1 phosphorylated on T346 (by active Akt2 in a kinase assay, or as precipitated from hypoxic PC3 cells)”, with “WT PDK1 phosphorylated PDHE1 in the presence of Akt2”.
kinase active Akt1 (SignalChem): in data set [2], the “phosphorylation in a kinase assay, Western blotting with Akt cons Ab” value is on record as “active Akt1 or Akt2 readily phosphorylated PDK1” and the “phosphorylation site by LC-MS/MS of chymotrypsin digests after a kinase assay” value is on record as “Thr346 (T346) was identified ... as the sole phospho-amino acid modified by Akt1 or Akt2, compared to control”.
“purified recombinant His-tagged PDK1 (Abcam)”: the “PDHE1 phosphorylation in a kinase assay with recombinant proteins, Western blotting” value in data set [1] is listed as “active Akt2 increased PDK1 phosphorylation of PDHE1”.
Consider “purified recombinant His-tagged PDK2 (Abcam)”, for which the “PDHE1 phosphorylation in a kinase assay with active Akt2, Western blotting” value in data set [1] is “increased PDHE1 phosphorylation was detected only in the presence of Akt2 and PDK1, but not PDK2, PDK3 or PDK4”.
On the same count and under the same terms, then “purified recombinant His-tagged PDK3 (Abcam)”, with “increased PDHE1 phosphorylation was detected only in the presence of Akt2 and PDK1, but not PDK2, PDK3 or PDK4”; and “purified recombinant His-tagged PDK4 (Abcam)”, with “increased PDHE1 phosphorylation was detected only in the presence of Akt2 and PDK1, but not PDK2, PDK3 or PDK4”.
